Results as given in patent publication US20160272707A1 (COMPUGEN, published 2016).

Columns and labels:
VSTM5 monomer [1] = target: T1, VSTM5 monomer (UniProt A8MXK1 29-147, limits assumed); assay: SPR, VSTM5 monomer binding to the IgG
T1 construct: also called monomeric VSTM5 antigen; VSTM5 antigen
T1 sequence (looked up): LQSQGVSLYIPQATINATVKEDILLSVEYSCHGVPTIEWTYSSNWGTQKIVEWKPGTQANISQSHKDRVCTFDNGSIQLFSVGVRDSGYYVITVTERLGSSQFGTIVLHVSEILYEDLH

VSTM5 monomer [2] = target: T1, VSTM5 monomer; assay: SPR, VSTM5 monomer binding to the IgG (equilibrium binding constant)
[3] = target: T2, mouse VSTM5 (SEQ ID NO:11) expressed on HEK-293T cells (mouse, UniProt Q9D806 28-199); assay: FACS, IgG1 at 22 nM on 293-muVSTM5 cells; grade from ratio to 293-MT control cells (50-400)
T2 construct: also called mouse VSTM5 untagged
T2 sequence: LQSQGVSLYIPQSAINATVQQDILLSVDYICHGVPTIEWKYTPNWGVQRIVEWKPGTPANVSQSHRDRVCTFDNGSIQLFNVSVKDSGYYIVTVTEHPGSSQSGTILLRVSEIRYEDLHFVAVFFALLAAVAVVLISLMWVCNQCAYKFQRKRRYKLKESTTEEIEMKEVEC

[4] = target: T3, human VSTM5-EGFP (SEQ ID NO:133) expressed on HEK-293 cells (human); assay: FACS, IgG1 at 22 nM on 293-huVSTM5 (VSTM5-EGFP) cells; grade from ratio to 293-MT control cells (50-400)
T3 construct: Full-length human VSTM5 fused at its C-terminus to EGFP; also called VSTM5_GFP

B1: 50-01.B01 (antibody, V domains shown)
VH: QVQLQESGPGLMKPSQTLSLTCTVSGDSITRGSSYWSWIRQSDGKGLEWIGHIYSGGDTDYNPALKSRVTISADASRGQFLLRLTSMTAADTAVYYCARDRGAYGMDVWGQGTTVTVSS
VL: QPVLTQSSSASASLGASVKLTCTLSSEHDRYAIAWLQQKPEKGPRYLMKVNSDGSHRKGDGIPDRFSGSSSGAERYLTISRLQSEDEADYYCQTWGIGIRVFGGGTQLTVLG
notes: also called 50-01.801
- Kd (VSTM5 monomer [1]): 657 nM
- Kd (VSTM5 monomer [2]): 657 nM
- ratio of 293-muVSTM5 cell binding / 293-MT control cell binding (FACS) at 22 nM mAb [3]: 50 to 400 ratio
- ratio of 293-huVSTM5 cell binding / 293-MT control cell binding (FACS) at 22 nM mAb [4]: 50 to 400 ratio
